The source of these data is paper PMC11573645.

By Kd is commonly meant the concentration at which binding is half-saturated. High values mean a looser complex, low ones a tighter complex.

The assay concerns the target complement component C3b, site-specifically biotinylated at Cys-1010 (human) (UniProt P01024). Put plainly: SPR. Background: In SPR one partner is held on a chip, and binding of the other changes the refractive index at the surface.

On to “Native FB purified from human serum (natural protein)”, for which the Ka-1 (two-state model, first step, association) stood at 168000 M⁻¹ s⁻¹; the dissociation constant Kd is 109 nM; the Kd-1 (two-state model, first step, dissociation) was determined as 0.0702 s⁻¹; the Kd-2 (two-state model, second step, reverse) amounted to 0.00249 s⁻¹.

Regarding “recombinant FB with D279G and K350N (from UniProt P00751 26-764) (natural protein)”, the Ka-1 (two-state model, first step, association) worked out at 225000 M⁻¹ s⁻¹; the Kd-1 (two-state model, first step, dissociation) is 0.0526 s⁻¹; the Kd-2 (two-state model, second step, reverse) came out at 0.0045 s⁻¹.

Substance “recombinant FB with D279G mutation (from UniProt P00751 26-764) (natural protein)” displayed a Ka-1 (two-state model, first step, association) of 304000 M⁻¹ s⁻¹; a Kd-1 (two-state model, first step, dissociation) of 0.0376 s⁻¹; a Kd-2 (two-state model, second step, reverse) of 0.00941 s⁻¹.

“recombinant FB with D279G, K350N, and S699A (from UniProt P00751 26-764) (natural protein)” registered a Ka-1 (two-state model, first step, association) of 256000 M⁻¹ s⁻¹; a Kd of 104 nM; a Kd-1 (two-state model, first step, dissociation) of 0.0469 s⁻¹; a Kd-2 (two-state model, second step, reverse) of 0.00836 s⁻¹.

“recombinant FB with F286L mutation (from UniProt P00751 26-764) (natural protein)” showed a Ka-1 (two-state model, first step, association) of 551000 M⁻¹ s⁻¹; a Ka-2 (two-state model, second step, forward) of 0.0289 s⁻¹; a Kd-1 (two-state model, first step, dissociation) of 0.0229 s⁻¹; a Kd-2 (two-state model, second step, reverse) of 0.0083 s⁻¹.

“recombinant FB with K323E mutation (from UniProt P00751 26-764) (natural protein)” yielded a Ka-1 (two-state model, first step, association) of 280000 M⁻¹ s⁻¹; a Kd of 159 nM; a Kd-1 (two-state model, first step, dissociation) of 0.0807 s⁻¹; a Kd-2 (two-state model, second step, reverse) of 0.00723 s⁻¹.

In turn, “recombinant FB with K350N mutation (from UniProt P00751 26-764) (natural protein)” gave a Ka-1 (two-state model, first step, association) of 131000 M⁻¹ s⁻¹; a Kd of 322 nM; a Kd-1 (two-state model, first step, dissociation) of 0.0995 s⁻¹; a Kd-2 (two-state model, second step, reverse) of 0.00419 s⁻¹.

Substance “recombinant wild-type FB (from UniProt P00751 26-764) (natural protein)” came in with a Ka-1 (two-state model, first step, association) of 325000 M⁻¹ s⁻¹; a Kd-1 (two-state model, first step, dissociation) of 0.0796 s⁻¹; a Kd-2 (two-state model, second step, reverse) of 0.0138 s⁻¹.
